# Results taken from patent publication US20230212549A1, “COMPOUNDS COMPRISING A […] LIGAND AND USE THEREOF” (priority 2021, published 2023).
# Bridge positions count the residues as written; N and C are the ends.
# T1: 5-HT1A (h) (human), P08908
# T1 chain: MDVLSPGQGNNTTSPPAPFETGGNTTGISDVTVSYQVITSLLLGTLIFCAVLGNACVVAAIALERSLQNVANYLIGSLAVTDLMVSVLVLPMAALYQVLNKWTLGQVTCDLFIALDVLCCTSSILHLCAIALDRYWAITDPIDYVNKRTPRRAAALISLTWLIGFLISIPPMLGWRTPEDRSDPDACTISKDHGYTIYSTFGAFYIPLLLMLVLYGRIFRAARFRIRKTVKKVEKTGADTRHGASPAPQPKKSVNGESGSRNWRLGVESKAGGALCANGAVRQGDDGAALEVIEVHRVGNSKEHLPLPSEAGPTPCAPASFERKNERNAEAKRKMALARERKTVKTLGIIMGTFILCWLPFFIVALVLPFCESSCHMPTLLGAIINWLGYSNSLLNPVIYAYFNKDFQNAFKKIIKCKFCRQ
# T2: A2A (h) (human), P29274
# T2 chain: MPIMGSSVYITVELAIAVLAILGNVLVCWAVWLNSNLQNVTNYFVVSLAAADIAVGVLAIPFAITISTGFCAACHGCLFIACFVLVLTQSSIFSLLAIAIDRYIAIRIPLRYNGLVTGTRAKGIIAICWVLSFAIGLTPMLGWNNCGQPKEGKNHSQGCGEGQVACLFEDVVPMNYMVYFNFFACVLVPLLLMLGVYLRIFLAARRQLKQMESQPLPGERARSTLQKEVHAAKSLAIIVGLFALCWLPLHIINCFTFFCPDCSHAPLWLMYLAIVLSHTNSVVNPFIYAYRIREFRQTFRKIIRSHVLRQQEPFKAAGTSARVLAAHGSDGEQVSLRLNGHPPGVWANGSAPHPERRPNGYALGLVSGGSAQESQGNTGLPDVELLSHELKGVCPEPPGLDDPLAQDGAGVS
# T3: AR (h) (human), P10275
# T3 chain: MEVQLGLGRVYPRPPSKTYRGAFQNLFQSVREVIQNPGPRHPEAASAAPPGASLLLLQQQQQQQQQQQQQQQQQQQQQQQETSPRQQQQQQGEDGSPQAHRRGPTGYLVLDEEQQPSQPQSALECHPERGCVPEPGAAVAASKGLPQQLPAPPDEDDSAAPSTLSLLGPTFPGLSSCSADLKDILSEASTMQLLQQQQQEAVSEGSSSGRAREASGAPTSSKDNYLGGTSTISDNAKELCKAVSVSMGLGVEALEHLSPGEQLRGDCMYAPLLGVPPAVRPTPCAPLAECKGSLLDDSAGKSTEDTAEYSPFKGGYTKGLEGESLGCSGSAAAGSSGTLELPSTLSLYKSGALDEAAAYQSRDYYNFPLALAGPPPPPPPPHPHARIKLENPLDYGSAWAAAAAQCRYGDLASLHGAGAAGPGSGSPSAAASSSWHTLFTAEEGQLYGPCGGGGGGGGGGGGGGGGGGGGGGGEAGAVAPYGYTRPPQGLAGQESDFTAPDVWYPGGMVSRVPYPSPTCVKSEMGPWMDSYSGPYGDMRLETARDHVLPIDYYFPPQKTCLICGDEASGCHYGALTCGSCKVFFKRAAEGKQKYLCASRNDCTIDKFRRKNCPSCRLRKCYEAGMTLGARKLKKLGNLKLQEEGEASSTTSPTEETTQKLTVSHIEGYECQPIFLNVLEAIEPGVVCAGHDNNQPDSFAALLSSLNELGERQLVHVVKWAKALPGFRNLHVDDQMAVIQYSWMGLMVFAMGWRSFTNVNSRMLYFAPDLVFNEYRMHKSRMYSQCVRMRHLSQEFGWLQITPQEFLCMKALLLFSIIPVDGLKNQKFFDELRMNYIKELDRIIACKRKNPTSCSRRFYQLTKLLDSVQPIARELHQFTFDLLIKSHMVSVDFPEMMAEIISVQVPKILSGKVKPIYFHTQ
# T4: GR (h) (human), P04150
# T4 chain: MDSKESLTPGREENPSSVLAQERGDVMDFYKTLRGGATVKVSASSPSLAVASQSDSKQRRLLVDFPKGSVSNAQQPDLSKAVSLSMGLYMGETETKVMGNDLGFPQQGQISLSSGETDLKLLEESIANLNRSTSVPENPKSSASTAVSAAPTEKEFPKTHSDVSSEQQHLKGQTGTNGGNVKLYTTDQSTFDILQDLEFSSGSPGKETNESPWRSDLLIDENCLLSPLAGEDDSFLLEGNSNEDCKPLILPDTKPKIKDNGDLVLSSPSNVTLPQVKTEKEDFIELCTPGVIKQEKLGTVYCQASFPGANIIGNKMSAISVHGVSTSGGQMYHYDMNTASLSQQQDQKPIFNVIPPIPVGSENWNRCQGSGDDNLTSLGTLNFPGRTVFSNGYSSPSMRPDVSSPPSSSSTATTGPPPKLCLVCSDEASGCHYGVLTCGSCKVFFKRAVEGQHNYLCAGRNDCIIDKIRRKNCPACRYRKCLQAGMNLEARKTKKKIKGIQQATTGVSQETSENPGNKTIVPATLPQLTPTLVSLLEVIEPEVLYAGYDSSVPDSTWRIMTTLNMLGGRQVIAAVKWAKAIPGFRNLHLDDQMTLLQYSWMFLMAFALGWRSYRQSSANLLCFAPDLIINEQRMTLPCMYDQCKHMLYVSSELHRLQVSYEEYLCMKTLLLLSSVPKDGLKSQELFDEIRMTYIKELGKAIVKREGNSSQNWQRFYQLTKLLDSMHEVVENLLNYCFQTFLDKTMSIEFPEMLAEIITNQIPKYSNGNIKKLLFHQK
# B1: Hex-[Cys(tMeBn(DOTA-PP))-Pro-Pro-Thr-Gln-Phe-Cys]-Asp-NH2 (peptide)
# peptide: Hex-CPPTQFCD-NH2
# modifications: bridge 1-7; not fully specified (bridges); printed as Hex-[Cys(tMeBn(DOTA-PP))-Pro-Pro-Thr-Gln-Phe-Cys]-Asp-NH2
# B2: Hex-[Cys(tMeBn(DOTA-AET))-Pro-Pro-Thr-Gln-Phe-Cys]-OH (peptide)
# peptide: Hex-CPPTQFC-OH
# modifications: bridge 1-7; not fully specified (bridges); printed as Hex-[Cys(tMeBn(DOTA-AET))-Pro-Pro-Thr-Gln-Phe-Cys]-OH
# What was measured:
# DPP9, Q86TI2 = assay: cell-based or functional assay
# Chain of DPP9, Q86TI2 (Q86TI2 whole entry): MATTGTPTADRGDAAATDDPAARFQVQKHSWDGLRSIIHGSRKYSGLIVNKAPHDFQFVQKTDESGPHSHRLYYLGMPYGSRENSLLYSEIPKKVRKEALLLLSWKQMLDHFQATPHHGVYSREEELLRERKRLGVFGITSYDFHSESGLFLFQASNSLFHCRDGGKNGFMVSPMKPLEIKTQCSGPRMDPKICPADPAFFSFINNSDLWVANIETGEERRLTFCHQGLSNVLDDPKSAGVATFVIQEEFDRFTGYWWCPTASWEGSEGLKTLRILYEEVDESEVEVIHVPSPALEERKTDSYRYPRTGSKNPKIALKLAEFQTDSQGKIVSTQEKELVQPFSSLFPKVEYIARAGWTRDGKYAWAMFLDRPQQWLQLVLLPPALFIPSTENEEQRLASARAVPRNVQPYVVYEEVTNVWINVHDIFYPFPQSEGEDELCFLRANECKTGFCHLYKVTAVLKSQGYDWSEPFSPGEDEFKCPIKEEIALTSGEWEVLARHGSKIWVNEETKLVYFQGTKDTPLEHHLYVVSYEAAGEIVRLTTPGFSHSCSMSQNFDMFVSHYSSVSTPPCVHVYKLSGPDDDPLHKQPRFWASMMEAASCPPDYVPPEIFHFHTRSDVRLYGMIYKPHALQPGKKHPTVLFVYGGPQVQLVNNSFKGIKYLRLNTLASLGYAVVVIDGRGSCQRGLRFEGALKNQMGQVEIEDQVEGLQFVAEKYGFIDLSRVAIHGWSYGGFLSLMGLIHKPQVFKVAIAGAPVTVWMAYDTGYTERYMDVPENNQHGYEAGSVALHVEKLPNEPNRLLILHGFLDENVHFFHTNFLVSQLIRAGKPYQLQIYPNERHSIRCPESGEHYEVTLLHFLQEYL
# [1] = molecular target: T1, 5-HT1A (h) (human), P08908; assay: radioligand displacement (agonist radioligand), 10 µM; conditions: remark: other sources report otherwise
# [2] = molecular target: 5-HT2A (h) (human), P28223; assay: as above; conditions: remark: other sources report otherwise
# Chain of 5-HT2A (h) (human), P28223 (P28223 whole entry): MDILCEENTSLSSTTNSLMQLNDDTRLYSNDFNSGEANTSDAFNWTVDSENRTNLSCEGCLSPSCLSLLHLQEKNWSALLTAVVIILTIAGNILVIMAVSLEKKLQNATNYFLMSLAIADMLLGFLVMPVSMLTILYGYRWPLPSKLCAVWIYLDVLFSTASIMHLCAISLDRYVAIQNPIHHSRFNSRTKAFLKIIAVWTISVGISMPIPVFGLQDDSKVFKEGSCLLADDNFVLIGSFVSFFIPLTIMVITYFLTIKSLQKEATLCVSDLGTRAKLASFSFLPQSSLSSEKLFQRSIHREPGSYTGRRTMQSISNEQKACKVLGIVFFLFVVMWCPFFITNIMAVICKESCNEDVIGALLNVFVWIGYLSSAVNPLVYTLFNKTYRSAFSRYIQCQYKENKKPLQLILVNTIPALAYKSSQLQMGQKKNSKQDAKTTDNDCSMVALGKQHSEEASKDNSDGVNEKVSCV
# A2A (h) (human), P29274 = molecular target: T2, A2A (h) (human), P29274; assay: as above; conditions: remark: other sources report otherwise
# AR (h) (human), P10275 = molecular target: T3, AR (h) (human), P10275; assay: as above; conditions: remark: other sources report otherwise
# BZD (central) = assay: as above
# CB2 (h) (human), P34972 = assay: as above; conditions: remark: other sources report otherwise
# Chain of CB2 (h) (human), P34972 (P34972 whole entry): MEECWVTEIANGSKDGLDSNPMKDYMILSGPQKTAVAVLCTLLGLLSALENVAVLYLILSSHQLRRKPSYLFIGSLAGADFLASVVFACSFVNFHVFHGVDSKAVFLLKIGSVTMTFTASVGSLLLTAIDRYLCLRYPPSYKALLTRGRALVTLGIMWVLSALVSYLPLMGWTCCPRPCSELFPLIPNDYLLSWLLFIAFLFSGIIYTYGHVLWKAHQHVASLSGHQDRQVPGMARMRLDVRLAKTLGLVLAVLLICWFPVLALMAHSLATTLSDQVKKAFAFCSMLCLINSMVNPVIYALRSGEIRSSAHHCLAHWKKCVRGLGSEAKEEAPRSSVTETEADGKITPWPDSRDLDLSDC
# GR (h) (human), P04150 = molecular target: T4, GR (h) (human), P04150; assay: as above; conditions: remark: other sources report otherwise
# [3] = molecular target: beta 1 (h) (human), P08588; assay: as above; conditions: remark: other sources report otherwise
# Chain of beta 1 (h) (human), P08588 (P08588 whole entry): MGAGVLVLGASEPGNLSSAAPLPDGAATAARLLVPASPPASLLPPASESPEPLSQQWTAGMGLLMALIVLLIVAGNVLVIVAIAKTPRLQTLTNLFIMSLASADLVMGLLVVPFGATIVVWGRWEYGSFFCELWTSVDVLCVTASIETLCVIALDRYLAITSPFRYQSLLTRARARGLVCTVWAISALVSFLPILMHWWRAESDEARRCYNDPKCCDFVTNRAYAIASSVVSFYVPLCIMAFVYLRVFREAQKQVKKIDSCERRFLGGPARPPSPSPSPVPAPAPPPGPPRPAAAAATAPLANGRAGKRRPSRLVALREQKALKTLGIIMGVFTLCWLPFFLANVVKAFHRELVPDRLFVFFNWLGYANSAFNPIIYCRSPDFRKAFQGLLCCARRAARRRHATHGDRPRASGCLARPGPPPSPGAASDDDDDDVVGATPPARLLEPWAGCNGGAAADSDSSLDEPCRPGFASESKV
# [4] = molecular target: mu (MOP) (h) (human), P35372; assay: as above; conditions: remark: other sources report otherwise
# Chain of mu (MOP) (h) (human), P35372 (P35372 whole entry): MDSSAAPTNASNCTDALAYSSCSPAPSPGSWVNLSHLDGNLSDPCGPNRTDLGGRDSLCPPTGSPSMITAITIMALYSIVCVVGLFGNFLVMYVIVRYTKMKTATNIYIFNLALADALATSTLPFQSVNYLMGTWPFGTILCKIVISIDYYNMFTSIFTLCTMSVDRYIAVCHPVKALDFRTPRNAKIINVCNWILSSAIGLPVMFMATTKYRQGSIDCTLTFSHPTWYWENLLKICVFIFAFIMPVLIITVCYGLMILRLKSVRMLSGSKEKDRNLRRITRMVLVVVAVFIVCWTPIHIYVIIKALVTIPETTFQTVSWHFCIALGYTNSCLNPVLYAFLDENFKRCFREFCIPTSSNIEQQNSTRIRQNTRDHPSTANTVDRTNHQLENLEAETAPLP
Binder,"Percentage inhibition (%) at 1 µM (DPP9, Q86TI2)","Percentage inhibition (%) at 10 µM (DPP9, Q86TI2)",% Inhibition of Specific Binding [1],% Inhibition of Specific Binding [2],"% Inhibition of Specific Binding (A2A (h) (human), P29274)","% Inhibition of Specific Binding (AR (h) (human), P10275)",% Inhibition of Specific Binding (BZD (central)),"% Inhibition of Specific Binding (CB2 (h) (human), P34972)","% Inhibition of Specific Binding (GR (h) (human), P04150)",% Inhibition of Specific Binding [3],% Inhibition of Specific Binding [4]
B1,-1%,0%,-3%,-2%,-4%,3%,-9%,2%,-2%,4%,2%
B2,-1%,-5%,-5%,4%,-16%,-5%,5%,-5%,0%,-13%,-10%
